The record followed here is FireProtDB (doi:10.1038/srep15545).

The conditions of this series: Escherichia coli (strain K12); pH 9; Thermal; DSC; Glycine 50mM; reversible: yes; whole UniProt chain shown.

B1: Divalent-cation tolerance protein CutA wild type, P69488 (protein)
chain: MLDEKSSNTASVVVLCTAPDEATAQDLAAKVLAEKLAACATLIPGATSLYYWEGKLEQEYEVQMILKTTVSHQQALLECLKSHHPYQTPELLVLPVTHGDTDYLSWLNASLR
The term Tm denotes the temperature at which the thermal transition is half complete. As for B1, the melting temperature (Tm) was 85.6 °C and the “unfolding enthalpy (calorimetric)” value was 208 kcal/mol.
